Measured values from patent US20060177880A1 (ROCHE DIAGNOSTICS OPERATIONS, published 2006).

Target: T1, ILEU (Leukocyte elastase inhibitor) (human, UniProt P30740 1-379)
T1 sequence: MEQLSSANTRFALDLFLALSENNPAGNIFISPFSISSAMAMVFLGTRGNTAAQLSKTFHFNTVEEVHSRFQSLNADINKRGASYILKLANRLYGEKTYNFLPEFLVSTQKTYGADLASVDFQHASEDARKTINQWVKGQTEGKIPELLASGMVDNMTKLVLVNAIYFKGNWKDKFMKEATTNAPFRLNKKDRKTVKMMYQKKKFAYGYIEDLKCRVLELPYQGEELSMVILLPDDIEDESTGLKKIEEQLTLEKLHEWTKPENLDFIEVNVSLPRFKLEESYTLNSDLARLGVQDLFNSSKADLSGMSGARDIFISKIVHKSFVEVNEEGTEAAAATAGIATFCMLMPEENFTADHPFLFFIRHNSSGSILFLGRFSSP
Assay: 2D gel (IEF and SDS-PAGE) of tumor tissue lysate, spot identified by MALDI-TOF mass spectrometry
Method: For IEF, 3 ml of the suspension are mixed with 12 ml sample buffer (7 M urea, 2 M thiourea, 2% CHAPS, 0.4% IPG buffer pH 6-9, 0.5% DTT) and incubated for 1 h. The samples are concentrated in an Amicon® Ultra-15 device (Millipore GmbH, Schwalbach, Germany) and the protein concentration is determined using the Bio-Rad® protein assay (Cat. No. 500-0006; Bio-Rad Laboratories GmbH, Munchen, Germany) following the instructions of the supplier's manual. To a volume corresponding to 1.5 mg of protein sample buffer is added to a final volume of 350 μl. This solution is used to rehydrate IPG strips pH 6-9 (Amersham Biosciences, Freiburg, Germany) overnight. The IEF is performed using the following gradient protocol: 1.) 1 minute to 500 V; 2.) 2 h to 3,500 V; 3.) 22 h at constant 3,500 V giving rise to 82 kVh. After IEF, strips are stored at −80° C. or directly used for SDS-PAGE. […]
Each patient is analyzed separately by image analysis with the ProteomeWeaver® software (Definiens AG, Germany, München). […] For each patient, 4 gels from the tumor sample are compared with 4 gels each from adjacent normal and stripped mucosa tissue and analyzed for distinctive spots corresponding to differentially expressed proteins. […]

binding result: binds
B1: PRN3 (proteinase 3) (enzyme)
chain: IVGGHEAQPHSRPYMASLQMRGNPGSHFCGGTLIHPSFVLTAAHCLRDIPQRLVNVVLGAHNVRTQEPTQQHFSVAQVFLNNYDAENKLNDVLLIQLSSPANLSASVATVQLPQQDQPVPHGTQCLAMGWGRVGAHDPPAQVLQELNVTVVTFFCRPHNICTFVPRRKAGICFGDSGGPLICDGIIQGIDSFVIWGCATRLFPDFFTRVALYVDWIRSTLR
notes: Endogenous protein in lysates of human colorectal tumor tissue, with an apparent MW of ~28 kDa on the blot; also called uncomplexed PRN3
